T1: APRIL (Mus musculus, UniProt Q9D777)
T1 construct: made in house
T1 sequence (Q9D777 105-241): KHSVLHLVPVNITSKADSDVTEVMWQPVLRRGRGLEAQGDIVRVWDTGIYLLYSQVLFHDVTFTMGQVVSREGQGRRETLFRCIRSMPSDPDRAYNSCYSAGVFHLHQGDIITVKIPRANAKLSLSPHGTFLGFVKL


How the values were obtained:
BAFF [1] = target: T2, BAFF (Homo sapiens, UniProt Q9Y275); assay: Competitive ELISA, BAFF; type: binding; settings: data not shown
T2 construct: made in house

APRIL [2] = target: T1, APRIL; assay: Competitive surface plasmon resonance, APRIL binding to immobilized BCMA-Fc; design: species or system murine; settings: competition with immobilized BCMA-Fc
Source text: (§1) Surface plasmon resonance (SPR) measurements on a BIAcore 3000 instrument (Pharmacia Biosensor) were used to measure binding affinities of receptors to immobilized APRIL and BAFF by competition binding. […] In these experiments, receptors in solution competed for binding of ligand in solution at room temperature with immobilized BCMA-Fc. BCMA-Fc was coupled to flow cell 2 of a CM4 sensor chip, using the amine coupling protocol supplied by the manufacturer, at a high density (4500 resonance units) so that the initial rate of binding was linearly dependent on the concentration of free ligand. In all experiments flow cell 1 was ethanolamine-blocked and used as the reference cell. Washing with 10 mM HCl regenerated flow cells between sample injections. In order to determine the ligand concentration necessary to obtain the optimal for competition experiments, a preliminary binding study was performed for each ligand where two-fold dilutions of the ligand ranging from 400 nM to 6.25 nM were injected over the BCMA-Fc surface. […] The IC50 values were calculated using a four-parameter curve fit (y=((m1−m4)/(1+(m0/m3)̂m2))+m4) of the initial binding rates for the receptor/control (Vi/Vo) as a function of receptor concentration.

APRIL [3] = target: T1, APRIL; assay: Competitive ELISA, APRIL; type: binding, murine; settings: data not shown
BAFF [4] = target: T2, BAFF; assay: Competitive surface plasmon resonance, BAFF binding to immobilized BCMA-Fc; settings: competition with immobilized BCMA-Fc
Source text: as §1

NF-κB = NF-κB ELAM-luciferase reporter assay in co-transfected 293T cells; type: cell-based, Human; settings: 293T cells co-transfected with ligand and receptor; 20 hr after transfection
Method: Human 293T cells were co-transfected with the indicated amounts of expression plasmids along with 250 ng of ELAM-luciferase reporter gene plasmid and 25 ng pRL-TK. 20 hr after transfection, reporter gene activity was determined with the dual-luciferase reporter assay system (Promega).

T2 sequence (Q9Y275 82-285 limits assumed): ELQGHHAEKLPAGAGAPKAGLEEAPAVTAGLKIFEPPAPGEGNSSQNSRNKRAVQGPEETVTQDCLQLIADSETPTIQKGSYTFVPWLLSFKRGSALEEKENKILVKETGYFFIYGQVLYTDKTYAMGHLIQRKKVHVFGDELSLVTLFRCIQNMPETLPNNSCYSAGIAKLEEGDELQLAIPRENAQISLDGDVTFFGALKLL

Row | binding to BAFF, in words (BAFF [1]) | affinity for APRIL, comparison in words (APRIL [2]) | binding to APRIL, in words (APRIL [3]) | affinity for BAFF, comparison in words (BAFF [4]) | Molecule | NF-κB activation by APRIL or BAFF (NF-κB)
1 | no improvement in binding | did not confer additional affinity | no improvement in binding | did not confer additional affinity | TACI_d1d2: residues 21-116 of the TACI extracellular domain (both CRDs) with a C-terminal His-tag (protein, UniProt O14836 21-116, looked up, fragment, extracellular domain C-terminal His-tag, residues 21-116 of the TACI extracellular domain (both CRDs) with a C-terminal His-tag) FPQGLWTGVAMRSCPEEQYWDPLLGTCMSCKTICNHQSQRTCAAFCRSLSCRKEQGKFYDHLLRDCISCASICGQHPKQCAYFCENKLRSPVNLPP | –
2 | – | – | – | – | shortTACI: TACI splice variant: first 20 residues, one tryptophan in place of the 47 residues encoding CRD1, then the rest of the protein (protein) MSGLGRSRRGGRSRVDQEERWSLSCRKEQGKFYDHLLRDCISCASICGQHPKQCAYFCENKLRSPVNLPPELRRQRSGEVENNSDNSGRYQGLEHRGSEASPALPGLKLSADQVALVYSTLGLCLCAVLCCFLVAVACFLKKRGDPCSCQPRSRPRQSPAKSSQDHAMEAGSPVSTSPEPVETCSFCFPECRAPTQESAVTPGTPDPTCAGRWGCHTRTTVLQPCPHIPDSGLGIVCVPAQEGGPGA | capable of mediating NF-κB activation

Reference: patent publication US20080181886A1, “Polypeptides That Bind Baff And/Or April” (Genentech, Inc., priority 2004, published 2008)
